# Assay results from the RNAGym collection of RNA variant scans (doi:10.1073/pnas.2313332121).
# B1: TPR t1 (parent)
# chain: GACCAAUCUGCCCUCAGAGCUCGAGAACAUCUUCGGAUGCAGAGGAGGCAGGCUUCGGUGGCGCGAUAGCGCCAACGUCCUCAACCUCCAAUGCAUCCCACCACAUGAUGAUGCCUGAAGAGCCUUGGUUUUUUG
# Variants of: B1
# Assay: polymerase ribozyme fitness, log enrichment relative to wild type (log ratio); higher = more active; in vitro selection for triplet polymerase activity
# Outline: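 Mutant libraries of each subunit of a heterodimeric triplet polymerase ribozyme were built by PCR and transcribed. Each library went through one round of in vitro selection in triplicate: annealing with biotinylated primer, partner subunit and triplets, frozen incubation at −7 °C, gel excision of extended constructs, streptavidin-bead capture and RT-PCR. Input and output libraries were Illumina-sequenced; only genotypes with ≥10 input reads and ≥1 read per output were kept. Fitness is log2(genotype enrichment/wild-type enrichment), using inverse-variance-weighted replicate averages.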
row,Variant,polymerase ribozyme fitness (log ratio)
1,U7A C12A A90G,-0.303
2,C8A C28A G45A C56G G69U,-2.82
3,C3A G45U G57U C82U C104A C123A,-4.01
4,U7G C73A U92A,-2.35
5,C82A G120U,0.156
6,C8U C15A A119G,0.435
7,C15A A66G U81C,-4.15
8,U14G,-1.56
9,G39A A84U,-1.22
10,G10C G25C C31G C89A C114U,-7.2
11,C88A C101U,-0.505
12,C11U C94A,-2.35
13,A6U G71U,-0.239
14,A37U A43C,-1.99
15,C4A U9A C64U U96C,-0.963
16,G25A C31G U32G C40U C72U U106C A108U C124A,-7.62
17,U38G G61U,-0.532
18,A41G A43G,-1.45
19,C40U C56G C70U,-2.46
20,C49U C73U G110A,-1.42
21,G48U G57A C62U U78C C114A U133G,-3.01
22,C8G G10A C12U G35A A66C C72G A121U G122C U130C,-7.42
23,C4G A37U A90C,-2.66
24,U38A G63U U131A,-2.72

row,Variant,polymerase ribozyme fitness (log ratio)
1,A41C G63C A90C C123G G128C,-3.12
2,A6C C11A,-2.65
3,C13G A100C,-3.31
4,C64U C94A,-0.615
5,C86U G110A A111C,-4.3
6,C73U A83U C104A G110U,-4.18
7,G61U A119G,1.3
8,C12A G69C A90U U106A,-4.63
9,U67C G69A U81C C104A G110C U112C,-8.47
10,G17A G71U G122A,-4.15
11,C73U C79G A84G U96C,-2.54
12,C79G C89A G127U,-4.91
13,G61A,0.0725
14,C40G U92A,-3.01
15,A2G C20G G113A,-1.61
16,U9G C12G G36A C101G,-1.32
17,U9A C53U C72U U92A G127A,-3.85
18,C56U G110C,-3.43
19,U9G A26U C72U,-2.22
20,U9C C72U U78C A83U A90G A121G,2.19
21,A43U G44A C76G A111C,-2.36
22,G47U C62G,-3.76
23,C72U C86U,-0.347
24,C79G C89U G117A,-4.75

row,Variant,polymerase ribozyme fitness (log ratio)
1,G93A C123G,0.42
2,C11A G60U A74U C88A,-2.8
3,A5C G44A A111U,-5.64
4,C72U C76U,0.954
5,G47A U78A,-1.09
6,C15G G48A C85G,-3.62
7,A111C G122U C123U U130C,-0.737
8,C49A C64U,-0.082
9,C4A A29U G48U G71U U109G,-5.09
10,C73U U133A,0.4
11,C34A G44C G69U C88A A91C G110A,-4.87
12,C79U G110C,-2.71
13,A43U G63C,-2.12
14,A43U G61U,-2.41
15,A5U G127U,-2.48
16,C4G G44U U96A A100U,-3.73
17,A24G G77A C115U,-2.98
18,C115U U116C,-2.06
19,G17A G48U G69C C88G,-5.4
20,G42C C49A U92C G117A G122A,-4.11
21,G77A C94G,-1.19
22,G44A C101A,-2.48
23,C12U G39A C72G C85U,-1.34
24,A2U C15G,-4.66

row,Variant,polymerase ribozyme fitness (log ratio)
1,C49U G71A U130C,-1.63
2,G42A G127U,-2.7
3,C4A C70U,-1.71
4,C82U U109G U130G,-6.23
5,C56U C114U,-1.71
6,G63A U106G,-2.57
7,G52C C82A U112G,-1.29
8,C89A G117C,-4.96
9,G47C A100U,-2.4
10,C8U C72G U96G,-1.03
11,C4G C56A,-2.34
12,C62U C70G C72U G120U,-2.44
13,C12G A16U G45U C89G U129C,-4.69
14,A46G C49U,-0.575
15,C82U C115U,-1.02
16,A91U A111C,-2.44
17,A18G G39U,-3.93
18,U7G A84C U112C A119U,1.28
19,A18U G36A A50G,-3.46
20,A2G C13U A91C G122A,-0.77
21,C13A C73A G120A C123A,-0.951
22,C12A C20A G61U G120A,-1.21
23,A66C A91U,-4.65
24,C8G C11U C40U A90G C97U U129G,-1.14

row,Variant,polymerase ribozyme fitness (log ratio)
1,C11U U38G G57U G69C A74G G110A,-7.09
2,C12G A29U A46U C124A,-1.77
3,G69C C72U,-0.189
4,G51U G60C,-2.36
5,G71C C102U,-3.11
6,A5U C56U A91C U112G,-1.59
7,G39A C72G,-0.976
8,G48A G69U,1.02
9,G47U G61A C123A,-0.25
10,A24U A46G G48A C70A A111G,-6.69
11,A37C C53U C123U,0.761
12,C56A G61C C62U C72G C89U,-0.49
13,G51A G60A C124G,-1.16
14,G42A G61C C114U G117C,-5.25
15,U21A G117U,-1.55
16,A24U C56U,-4.09
17,U59G C97U,-1.6
18,A6U C11U C28U C34A C73A G110A,0.315
19,G19A G63A A111G,-1.39
20,C64G A84U U112A,-6.14
21,G60C U92G,-3.59
22,G36A G71U U78A,-1.53
23,A43G G69A,-6.04
24,C31U C72U,-4.57

row,Variant,polymerase ribozyme fitness (log ratio)
1,C22G C80A C101U C124A,-3.81
2,C73U U81A C98A G113A G117U U131G,-5.03
3,A6U C88U G128A,-2.51
4,C40G G61C A118U,-1.55
5,G51A C72G U96A,-3.94
6,U9A C12U A37G G61A,0.106
7,U9G G120A U130A,1.11
8,G17C C20A G63U,-4.87
9,G61U C99A,-5.7
10,G48C C79U C101A,-1.57
11,G60U A91G,-1.56
12,A5U C73U G122A U129A,-2.07
13,G45C C49G U59G C89U,-3.44
14,C12U G117C,-1.68
15,C11G U109G,-4.69
16,C12U C20U A43U G45A C56G G113A,0.057
17,A2U C72U G110A,-4.59
18,C56G U81A U87A,-1.8
19,A43G G58C G60A,-2.53
20,C56A C80A U116G,-4.93
21,A46U G69U A91U A103G U106A C114U U131G,-5.56
22,C3G G42C G44U G63U C123A G128C,-3.73
23,C40U C56U A91C C97U C115U,-3.89
24,C13U G117U,-2.13

row,Variant,polymerase ribozyme fitness (log ratio)
1,U33A C72G,-5.17
2,C13A G48A U109A G120C,-5.29
3,A100U C101U C104A,-2.87
4,A50C U87C,-0.237
5,A43C G63C,-3.41
6,A29G A43C,-3.7
7,C8G C123A,0.956
8,G44A G77A U106C G117A,-3.03
9,C115U G128A,-2.99
10,C62A U133A,-1.52
11,A43C C70A C94U,-6.65
12,G52A C80U,-1.94
13,G19A G77U U81A C114A,-1.67
14,A2C U59G,-1.54
15,C15U G57U C102A U116G C123G,-4.08
16,G63A U126G,-2.3
17,A50C G63U U81A,-1.63
18,U55G C62G C123U,-0.0735
19,C13G U21A G52C A91C G120C,-3.21
20,G17A C53A C124G,-0.146
21,C15G G63C U96C G117C U130G,-0.822
22,C49U G63U A95G U112A,-2.42
23,A27G A84C C99U,-5.83
